Reference: patent US20220332804A1 (CSL INNOVATION, published 2022)
Positions count from the first letter of the chain named.

B1: RF16-226G (antibody)
heavy: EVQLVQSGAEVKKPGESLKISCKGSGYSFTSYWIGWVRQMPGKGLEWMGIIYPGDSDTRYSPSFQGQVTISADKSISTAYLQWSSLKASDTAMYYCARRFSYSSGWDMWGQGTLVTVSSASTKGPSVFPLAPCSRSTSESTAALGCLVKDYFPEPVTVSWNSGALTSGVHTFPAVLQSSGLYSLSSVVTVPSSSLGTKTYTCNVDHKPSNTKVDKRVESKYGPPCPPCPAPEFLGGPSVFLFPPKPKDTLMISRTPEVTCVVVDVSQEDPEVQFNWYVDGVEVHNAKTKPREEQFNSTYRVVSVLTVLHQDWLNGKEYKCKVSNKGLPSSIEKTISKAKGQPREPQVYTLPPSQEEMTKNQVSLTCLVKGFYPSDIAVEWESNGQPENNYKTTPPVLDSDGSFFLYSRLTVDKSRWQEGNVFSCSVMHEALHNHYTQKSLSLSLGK
light: SYELTQPPSVSVSPGQTARITCSGDALTSKYVAWYQQKSGQAPVLVIYEDTRRPSGIPERFSGSSSGTMATLTISGAQVEDEADYYCYSTDASGHQRVFGGGTKLTVLGQPKAAPSVTLFPPSSEELQANKATLVCLISDFYPGAVTVAWKADSSPVKAGVETTTPSKQSNNKYAASSYLSLTPEQWKSHRSYSCQVTHEGSTVEKTVAPTECS
B2: RF16-191G (antibody, V domains shown)
VH: EVQLLESGGGLVQPGGSLRLSCAASGFTFSKYWMGWVRQAPGKGLEWVSSIYSSGGWTYYADSVKGRFTISRDNSKNTLYLQMNSLRAEDTAVYYCARRPRSFSGSYYRAFDIWGQGTMVTVSS
VL: DIQMTQSPSSLSASVGDRVTITCRASQSITDYLNWYQQKPGKAPKLLIYAASSLQSGVPSRFSGSGSGTDFTLTISSLQPEDFATYYCQQSYSSSITFGQGTRLDLKR
B3: RF16-242G (antibody, V domains shown)
VH: EVQLVQSGAEVKKPGESLKISCKGSGYSFTSYWIGWVRQMPGKGLEWMGIIYPGDSDTRYSPSFQGQVTISADKSISTAYLQWSSLKASDTAMYYCARRGHYGDYFDYWGQGTLVTVSS
VL: SYELTQPPSVSVSPGQTARITCSGDALPKKYAYWYQQKSGQAPVLVIYEDRRRPSGIPERFSGSSSGTMATLTISGAQVEDEADYYCYSRDRAGNQRVFGGGTQLTVLG
notes: Germlined version of RF16-242
B4: RF16-203G (antibody, V domains shown)
VH: EVQLLESGGGLVQPGGSLRLSCAASGFTFSRYYMMWVRQAPGKGLEWVSSIGSSGGTTNYADSVKGRFTISRDNSKNTLYLQMNSLRAEDTAVYYCAKGGMVLGVVNIWGQGTLVTVSS
VL: SYELTQPPSVSVSPGQTASITCSGDKLGEKYVSWYQQKPGQSPVLVIYQDIKRPSGIPERFSGSNSGNTATLTISGTQAMDEADYYCQTWGTGGIQVFGGGTKLTVLG
B5: RF16-214G (antibody, V domains shown)
VH: EVQLLESGGGLVQPGGSLRLSCAASGFTFSWYQMMWVRQAPGKGLEWVSRIYPSGGGTAYADSVKGRFTISRDNSKNTLYLQMNSLRAEDTAVYYCARDAGYGDNWGQGTLVTVSS
VL: SYELTQPPSVSVSPGQTASITCSGDKLGEKYASWYQQKPGQSPVLVIYQDRKRPSGIPERFSGSNSGNTATLTISGTQAMDEADYYCQAWDTRAVVFGGGTKLTVLG
B6: RF16-242 (antibody, V domains shown)
VH: B3 VH with V5L
VL: B3 VL with Q36H, G56E, S75T, A83G, D84V, Y86F

biological target: T1, mouse C2 (mouse, UniProt P21180 19-760, limits assumed); assay: SPR, mouse C2, pH 7.3; VWB = very weak binding, KD not determined
T1 sequence (looked up): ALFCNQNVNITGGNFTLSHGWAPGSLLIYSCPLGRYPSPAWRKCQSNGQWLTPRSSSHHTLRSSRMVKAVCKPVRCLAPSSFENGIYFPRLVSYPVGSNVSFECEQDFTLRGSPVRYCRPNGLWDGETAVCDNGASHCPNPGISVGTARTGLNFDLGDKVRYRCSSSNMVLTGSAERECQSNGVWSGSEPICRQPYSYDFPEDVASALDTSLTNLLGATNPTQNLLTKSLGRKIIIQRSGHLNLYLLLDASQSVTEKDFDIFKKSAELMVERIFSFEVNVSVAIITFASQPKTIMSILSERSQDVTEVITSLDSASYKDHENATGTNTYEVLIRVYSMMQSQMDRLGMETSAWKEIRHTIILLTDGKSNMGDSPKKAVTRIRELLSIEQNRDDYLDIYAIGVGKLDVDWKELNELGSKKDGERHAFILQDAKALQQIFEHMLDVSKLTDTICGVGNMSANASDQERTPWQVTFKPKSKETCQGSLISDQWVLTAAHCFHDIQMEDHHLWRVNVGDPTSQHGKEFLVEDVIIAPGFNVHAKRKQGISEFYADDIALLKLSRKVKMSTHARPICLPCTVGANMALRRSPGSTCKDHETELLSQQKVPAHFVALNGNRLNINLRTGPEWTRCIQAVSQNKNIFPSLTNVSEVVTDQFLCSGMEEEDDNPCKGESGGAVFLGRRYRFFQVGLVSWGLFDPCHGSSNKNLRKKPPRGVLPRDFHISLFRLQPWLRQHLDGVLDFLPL

Binder | binding result
B1 | binds
B2 | binds
B3 | binds
B4 | binds
B5 | binds

biological target: T2, human complement C2 (human, UniProt P06681 21-752); assay: SPR, mAb captured, C2 analyte, MHAs buffer, pH 7.3
T2 construct: Recombinant full-length human C2 with C-terminal 8x His tag, purified from Expi293F supernatant; also called human C2; huC2
T2 sequence: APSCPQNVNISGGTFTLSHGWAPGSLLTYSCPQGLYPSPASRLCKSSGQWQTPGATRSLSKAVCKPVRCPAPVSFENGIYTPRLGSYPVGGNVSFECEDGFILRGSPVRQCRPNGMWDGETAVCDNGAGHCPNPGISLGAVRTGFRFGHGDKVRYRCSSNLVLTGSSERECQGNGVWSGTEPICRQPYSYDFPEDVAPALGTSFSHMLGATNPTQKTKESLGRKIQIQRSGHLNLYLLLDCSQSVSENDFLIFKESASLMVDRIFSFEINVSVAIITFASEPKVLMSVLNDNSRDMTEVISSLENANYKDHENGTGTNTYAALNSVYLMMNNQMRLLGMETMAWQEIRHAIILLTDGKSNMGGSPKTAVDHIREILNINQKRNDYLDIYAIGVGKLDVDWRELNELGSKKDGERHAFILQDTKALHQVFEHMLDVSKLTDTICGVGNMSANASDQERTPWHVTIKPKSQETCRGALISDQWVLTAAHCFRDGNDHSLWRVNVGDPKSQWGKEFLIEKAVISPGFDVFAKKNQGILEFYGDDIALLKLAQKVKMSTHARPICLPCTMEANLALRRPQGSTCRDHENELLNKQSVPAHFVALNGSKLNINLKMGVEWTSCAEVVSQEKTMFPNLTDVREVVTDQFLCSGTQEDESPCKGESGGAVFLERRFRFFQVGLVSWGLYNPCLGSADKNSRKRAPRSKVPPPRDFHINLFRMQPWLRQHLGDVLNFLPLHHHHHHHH
Experimental: (§1) Surface plasmon resonance (SPR, Biacore) was used for all binding affinity analyses. In brief, goat anti-human IgG was directly immobilised onto the carboxymethyl dextran surface of CM5 sensorchips to approximately 12,000 RU using standard NHS/EDC chemistry at pH 5. The immobilised antibody surface was pre-conditioned with ten injections of polyclonal human IgG (Privigen 60 s) prepared at 1 μg/mL. Ligands (anti-C2 mAbs) were captured at the beginning of each cycle as described below. An adjacent spot or flow cell in which only Polyclonal IgG was capture was used as a reference surface. The goat anti-human IgG Fc antibody surface was regenerate in 100 mM H3PO4, injected for 45 seconds at the end of each cycle. Experiments were performed at 37° C. and the flow rate of each experiment was kept constant at 30 μL/min.
(§2) This buffer contains ammonium sulfate instead of sodium chloride.

Binder | Kd [nM]
B1 | 45.6
B6 | 460
B3 | 558
B5 | 176

biological target: T3, cynomolgus monkey C2 (cynomolgus monkey, UniProt G8F3W0 21-752); assay: cell-based or functional assay
T3 sequence: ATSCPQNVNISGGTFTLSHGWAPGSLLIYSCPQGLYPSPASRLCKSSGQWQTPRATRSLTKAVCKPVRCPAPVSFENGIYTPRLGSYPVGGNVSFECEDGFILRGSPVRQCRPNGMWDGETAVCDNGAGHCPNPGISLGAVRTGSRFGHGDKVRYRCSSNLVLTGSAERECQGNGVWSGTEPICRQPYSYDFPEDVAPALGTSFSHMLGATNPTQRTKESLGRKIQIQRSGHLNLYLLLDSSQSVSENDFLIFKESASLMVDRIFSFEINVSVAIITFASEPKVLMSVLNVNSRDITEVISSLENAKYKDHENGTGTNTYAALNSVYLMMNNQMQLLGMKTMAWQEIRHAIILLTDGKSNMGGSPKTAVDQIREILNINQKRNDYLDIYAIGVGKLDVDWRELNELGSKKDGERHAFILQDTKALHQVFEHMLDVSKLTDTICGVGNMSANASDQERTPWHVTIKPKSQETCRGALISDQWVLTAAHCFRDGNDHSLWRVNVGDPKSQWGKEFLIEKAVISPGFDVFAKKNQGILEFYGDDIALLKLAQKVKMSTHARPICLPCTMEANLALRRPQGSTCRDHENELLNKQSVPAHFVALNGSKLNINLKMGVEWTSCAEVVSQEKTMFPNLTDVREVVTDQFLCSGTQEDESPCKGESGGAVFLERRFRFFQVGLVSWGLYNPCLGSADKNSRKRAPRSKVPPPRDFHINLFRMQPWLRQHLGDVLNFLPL

Binder | IC50, inhibition of cynomolgus classical complement pathway (Wieslab assay) [nM] | IC50, inhibition of cynomolgus lectin complement pathway (Wieslab assay) [nM]
B1 | 8.24 | 66.5
B2 | 8.73 | 42.9
B6 | 8.97 | 91.1
B3 | 19.3 | 275
B4 | 14100 | 5780
B5 | 135 | 223

biological target: T2, human complement C2; assay: SPR, mAb captured, C2 analyte, MHAs buffer, pH 6.0, steady state
Experimental: as §1, §2

Binder | Kd [nM]
B1 | 1900
B6 | 11600
B3 | 12000
B5 | 1480

biological target: T2, human complement C2; assay: SPR, mAb captured, C2 analyte, HBS-EP, pH 6.0
Experimental: as §1
The pH dependent anti-C2 antibodies and their germlined versions were tested for their affinity to C2 at pH 7.3 (neutral pH) and pH 6.0 (early endosome pH) using the SPR methods described above in HBS-EP buffer.

Binder | Kd [nM]
B1 | 128
B2 | 13
B6 | 16
B3 | 14
B5 | 53.9

biological target: T3, cynomolgus monkey C2; assay: cell-based or functional assay; remark: another data set of the same source

Binder | IC50, inhibition of cyno classical pathway (hemolysis assay), mean of three experiments [nM] | IC50, inhibition of cyno classical pathway (hemolysis assay) [nM]
B1 | 176 | –
B2 | – | 213
B6 | – | 642
B3 | – | 302
B5 | – | 396

biological target: T2, human complement C2; assay: cell-based or functional assay

Binder | IC50, inhibition of human classical pathway (hemolysis assay) [nM]
B1 | 230
B2 | 94
B6 | 55.4
B3 | 80.3
B5 | 337

biological target: T2, human complement C2; assay: SPR, mAb captured, C2 analyte, HBS-EP, pH 7.3

Binder | Kd [nM]
B1 | 10
B2 | 18.9
B6 | 7
B3 | 6.7
B4 | 506
B5 | 25.1

biological target: T2, human complement C2; assay: cell-based or functional assay; remark: another data set of the same source

Binder | IC50, inhibition of human classical complement pathway (Wieslab assay) [nM] | IC50, inhibition of human lectin complement pathway (Wieslab assay) [nM]
B1 | 5.58 | 3.25
B2 | 1.64 | 1.62
B6 | 9.19 | 2.91
B3 | 26.3 | 3.19
B4 | 2030 | 33.2
B5 | 20.3 | 6.4

biological target: T3, cynomolgus monkey C2; assay: SPR, mAb captured, cyno C2 analyte, pH 6.0
Experimental: as §1
In addition to human C2, the pH dependent anti-C2 antibodies were also tested for their ability to bind to C2 from other mammalian species using the SPR methods described above in order to identify suitable surrogate species for in vivo testing. The antibodies were tested for binding at neutral pH against C2 from cynomolgus monkeys, mice, dogs, rabbits, rats, pigs, and sheep.

Binder | Kd [nM]
B1 | 114
B2 | 87.3
B6 | 134
B3 | 132
B5 | 111

biological target: T2, human complement C2; assay: SPR, mAb captured, C2 analyte, MHAs buffer, pH 5.8, steady state
Experimental: as §1, §2

Binder | Kd [nM]
B1 | 4060
B6 | 32000
B3 | 47000
B5 | 3340

biological target: T3, cynomolgus monkey C2; assay: SPR, mAb captured, cyno C2 analyte, pH 7.3

Binder | Kd [nM]
B1 | 4.7
B2 | 35.7
B6 | 5.2
B3 | 4.4
B4 | 485
B5 | 41.5
